Results: paper PMC4995099, “Drosophila Nanos acts as a molecular clamp that modulates the RNA-binding and repression activities of Pumilio”
Substitutions are numbered along the chain they refer to.

Key:
Pum PUM-HD WT (EMSA) [1] = molecular target: T1, Pum PUM-HD WT (EMSA) (UniProt P25822 1091-1426); assay: EMSA; EMSA: 50 mM Tris-HCl pH 7.6, 150 mM NaCl, 2 mM DTT, 2 ug/mL BSA, 0.01% Igepal CA-630, 0.02% bromophenol blue, 20% glycerol, 3 h at 4 C; 1 nM Cy5 RNA or 0.3 nM 32P RNA; conditions: protein: recombinant; tags: N-terminal 3xFLAG; Halo-tag removed by TEV; label: 5' Cy5
T1 sequence: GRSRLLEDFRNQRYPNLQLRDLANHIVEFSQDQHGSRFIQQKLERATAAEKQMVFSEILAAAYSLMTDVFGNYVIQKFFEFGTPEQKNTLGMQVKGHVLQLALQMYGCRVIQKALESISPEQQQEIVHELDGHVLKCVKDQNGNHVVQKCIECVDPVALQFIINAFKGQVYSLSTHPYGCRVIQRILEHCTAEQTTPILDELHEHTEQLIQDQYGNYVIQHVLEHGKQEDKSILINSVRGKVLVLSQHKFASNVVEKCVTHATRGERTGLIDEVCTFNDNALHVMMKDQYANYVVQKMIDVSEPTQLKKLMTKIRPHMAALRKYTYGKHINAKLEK

Nos ZC WT (EMSA) = molecular target: T2, Nos ZC WT (EMSA) (UniProt P25724 289-401); assay: EMSA; up to 1 uM Nos ZC; EMSA: 50 mM Tris-HCl pH 7.6, 150 mM NaCl, 2 mM DTT, 2 ug/mL BSA, 0.01% Igepal CA-630, 0.02% bromophenol blue, 20% glycerol, 3 h at 4 C; 1 nM Cy5 RNA or 0.3 nM 32P RNA; conditions: protein: recombinant; tags: C-terminal V5; Halo-tag removed by TEV; label: 5' Cy5
T2 sequence: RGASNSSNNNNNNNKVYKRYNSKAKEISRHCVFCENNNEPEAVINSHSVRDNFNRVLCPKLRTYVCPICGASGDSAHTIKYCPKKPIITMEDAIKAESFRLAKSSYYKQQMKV

Pum F1367S = molecular target: T3, Pum F1367S (UniProt P25822 1091-1426, F1367S); assay: EMSA; RNA label form not stated; EMSA: 50 mM Tris-HCl pH 7.6, 150 mM NaCl, 2 mM DTT, 2 ug/mL BSA, 0.01% Igepal CA-630, 0.02% bromophenol blue, 20% glycerol, 3 h at 4 C; 1 nM Cy5 RNA or 0.3 nM 32P RNA; conditions: protein: recombinant; tags: N-terminal 3xFLAG; Halo-tag removed by TEV; label: 5' Cy5
T3 sequence: T1 sequence with F277S

Pum Q1337A = molecular target: T4, Pum Q1337A (UniProt P25822 1091-1426, Q1337A); assay: as above; conditions: protein: recombinant; tags: N-terminal 3xFLAG; Halo-tag removed by TEV; label: 5' Cy5
T4 sequence: T1 sequence with Q247A

[2] = molecular target: T5, Pum PUM-HD WT (EMSA);Nos ZC WT (EMSA) (Drosophila melanogaster?;Drosophila …, UniProt P25822;P25724 1091-1426;289-401, |); assay: EMSA; Nos ZC titrated at 100 nM Pum; high affinity, Kd only in figure; EMSA: 50 mM Tris-HCl pH 7.6, 150 mM NaCl, 2 mM DTT, 2 ug/mL BSA, 0.01% Igepal CA-630, 0.02% bromophenol blue, 20% glycerol, 3 h at 4 C; 1 nM Cy5 RNA or 0.3 nM 32P RNA; conditions: protein: recombinant;recombinant, tags: N-terminal 3xFLAG, Halo-tag removed by TEV;C-terminal V5, copies: 1;1, label: 5' Cy5
T5 sequence 1: T1 sequence
T5 sequence 2: T2 sequence

[3] = molecular target: T5, Pum PUM-HD WT (EMSA);Nos ZC WT (EMSA); assay: EMSA; Pum titrated, 400 nM Nos ZC constant; EMSA: 50 mM Tris-HCl pH 7.6, 150 mM NaCl, 2 mM DTT, 2 ug/mL BSA, 0.01% Igepal CA-630, 0.02% bromophenol blue, 20% glycerol, 3 h at 4 C; 1 nM Cy5 RNA or 0.3 nM 32P RNA; conditions: protein: recombinant;recombinant, tags: N-terminal 3xFLAG, Halo-tag removed by TEV;C-terminal V5, copies: 1;1, label: 5' 32P (EMSA), none (crystal)
Pum PUM-HD WT (EMSA) [4] = molecular target: T1, Pum PUM-HD WT (EMSA); assay: EMSA; Pum alone; Kd printed only in figure; EMSA: 50 mM Tris-HCl pH 7.6, 150 mM NaCl, 2 mM DTT, 2 ug/mL BSA, 0.01% Igepal CA-630, 0.02% bromophenol blue, 20% glycerol, 3 h at 4 C; 1 nM Cy5 RNA or 0.3 nM 32P RNA; conditions: protein: recombinant; tags: N-terminal 3xFLAG; Halo-tag removed by TEV; label: 5' 32P (EMSA); none (crystal)

UUGUUGUCGAAAAUUGUACAUAAGCC (ssRNA) [Cy5-hb NRE2 RNA]
binding result (Pum PUM-HD WT (EMSA) [1]): binds | binding result (Nos ZC WT (EMSA)): no binding | binding result (Pum F1367S): binds | binding result (Pum Q1337A): binds | binding result [2]: binds

AAAUUGUACAUAAGCC (ssRNA) [hb NRE2 RNA 16-nt]
Kd [3]: 8.7 nM | fold weaker RNA-binding affinity (Kd ratio) (Pum PUM-HD WT (EMSA) [4]): 3 fold weaker than with Nos ZC
